Laboratory results taken from patent US20250171534A1 (D2M BIOTHERAPEUTICS, published 2025).
Positions count from the first letter of the chain named.

B1: #27 (antibody, human IgG1, V domains shown)
VH: EVQLQQSGAELMKPGASVKISCKITGYTFSSYWIEWVKQRPGHDLEWIGEILPGSGSTNYNEKFKGKASFTADTSSNTAYMQLNSLTSEDSAVYYCARSGAGGYDSGAFAYWGQGTLVTVSA
VL: DIVLTQSPASLAVSLGQRATISCRASESVDTYGNSFMHWYQQKPGQPPKLLIYRTSNLESGIPARFSGSGSRTDFTLTINPVEADDVATYYCQQSNEDPWTFGGGTKLEIK
notes: also called D2M002-027
B2: #16 (antibody, human IgG1, V domains shown)
VH: B1 VH with I24A, Y27N, S69T
VL: B1 VL with V3E, L4M, V29I, T31S
notes: also called D2M002-016
B3: #22 (antibody, human IgG1, V domains shown)
VH: B1 VH with E1Q, I24A, F29L, D44G, S69T, N84S
VL: B1 VL
notes: also called D2M002-022
B4: #11 (antibody, human IgG1, V domains shown)
VH: B1 VH with I24A, S31N, D44G, N59D, K65E, S69T, N84S
VL: B1 VL with V3Q, L4M
notes: also called D2M002-011
B5: #8 (antibody, human IgG1, V domains shown)
VH: B1 VH with S7P, I24A, Y32S, I34T, D44G, S69T, N84S
VL: B1 VL with V29I
notes: also called D2M002-008
B6: #21 (antibody, human IgG1, V domains shown)
VH: B1 VH with E1Q, I24A, Y27S, D44G, S69T, N84S
VL: B1 VL
notes: also called D2M002-021
B7: #28 (antibody, human IgG1, V domains shown)
VH: B1 VH with I24A, D44G, S69T, N84S, A122S
VL: B1 VL with L4M
notes: also called D2M002-028
B8: #3 (antibody, human IgG1, V domains shown)
VH: QIQLLQSGPELVKPGASVKMSCKASGYTFTRYVMYWVKQKPGQGLEWIGYINPDNDGTKYNEKFKGKATLTSDKSSSTAYMELSSLTSEDSAVYYCARGDLELLPYYDYVRNAMDYWGQGTSVTVSS
VL: DIQMTQSPASLSASVGETVTITCRASGNIHNYLAWYQQKQGKSPQLLVYNAKTLADGVPSRFSGSGSGTQYSLKINSLQPEDFGSYYCQHFWSTPPTFGGGTKLEIK
notes: also called D2M002-003
B9: D2M002-101 (antibody, V domains shown)
VH: QVQLVQSGAEVKKPGASVKVSCKASGYTFTRYVMHWVRQAPGQRLEWMGWINPNNEETKYSQKFKGRVTLTRDTSASTAYMELSSLRSEDTAVYYCARADLEILPYYDHARNAMDYWGQGTLVTVSS
VL: DIQMTQSPSSVSASVGDRVTITCRASENIYSHLAWYQQKPGKAPKLLVYNAKSLQSGVPSRFSGSGSGTDFTLTISSLQPEDFATYYCQHFWSTPPTFGGGTKVEIK
notes: humanized and optimized variant tested beside D2M002-002; also called P211_A12
B10: D2M002-122 (antibody, V domains shown)
VH: QVQLVQSGAEVKKPGASVKVSCKASGYTFTSYWIEWVRQAPGQGLEWIGEILPGEGSTNYNAKFKGRVTFTTDTSTSTAYMELRSLRSDDTAVYYCARSGAGGYDSGAFAYWGQGTLVTVSS
VL: AIQLTQSPSSLSASVGDRVTITCRASESVDTYGNSFMHWYQQKPGKAPKLLVYRTSNLESGVPSRFSGSGSGTDFTLTISSLQPEDFATYYCQQSNEDPWTFGGGTKVEIK
B11: D2M002-124 (antibody, V domains shown)
VH: B10 VH with E55S
VL: B10 VL
B12: #41 (antibody, human IgG1, V domains shown)
VH: DVQLQQSGAELMKPGASVKISCKATGYTFSSSWIEWVKQRPGHGLEWIGEILPGSGNTSYNEKFKGKATFTADTSSSAAYMQLSSLTSEDSAVYYCARSGLYYDYGGFAYWGQGTLVTVSA
VL: B1 VL with W100F, G104S
notes: also called D2M002-041
B13: #31 (antibody, human IgG1, V domains shown)
VH: QVQMQPFGAELMKPGASVRISCKATGYTFSSSWIEWVKQRPGHGLEWIGEILPGSGTTNYNEKFKGKATFTADTSSNTAYMQLSSLTSEDSAVYYCARSGAGGYDSGAFTYWGQGTLVTVSA
VL: B1 VL with V29I, T55A
notes: also called D2M002-031
B14: #18 (antibody, human IgG1, V domains shown)
VH: B1 VH with I24T, Y27N, S69T
VL: B1 VL with T31S
notes: also called D2M002-018
B15: #23 (antibody, human IgG1, V domains shown)
VH: QVQMQQPGAELMKPGASVKISCKATGYTFSRYWIEWVKQRPGHGLEWIGEILPGDGSTNYNAKFKGQATFTADTSSNTAYMQFSSLTYEDSAVYYCARSGAGGYDSGAFAYWGQGTLVTVSS
VL: B1 VL
notes: also called D2M002-023
B16: #29 (antibody, human IgG1, V domains shown)
VH: B1 VH with L11V, M12K, I24A, D44G, S69T, N84S, S91F, A92T, A110G, A122S
VL: B1 VL with L4M, V29I, T55A
notes: also called D2M002-029
B17: #17 (antibody, human IgG1, V domains shown)
VH: B1 VH with I24T, Y27N, T58S, S69T
VL: B1 VL with T31S, A64S
notes: also called D2M002-017
B18: #36 (antibody, human IgG1, V domains shown)
VH: B13 VH with M4L, P6Q, F7S
VL: B1 VL with V29I, T55A
notes: also called D2M002-036
B19: #40 (antibody, human IgG1, V domains shown)
VH: B1 VH with I24T, Y27N, S55R, Y60N, S69P, A101G
VL: B1 VL
notes: also called D2M002-040
B20: #20 (antibody, human IgG1, V domains shown)
VH: B1 VH with E1Q, L4F, A9V, I24A, Y27N, S31N, S69T
VL: B1 VL with L4M, T31S
notes: also called D2M002-020
B21: #35 (antibody, human IgG1, V domains shown)
VH: B13 VH with M4L, P6Q, F7S, T57S
VL: B1 VL with V29I, T55A
notes: also called D2M002-035
B22: #12 (antibody, human IgG1, V domains shown)
VH: B1 VH with E1Q, V2I, Q5L, I24A, S31N, D44G, S69T, N84S, A122S
VL: B1 VL with T31S, T89A
notes: also called D2M002-012

The binders below were run against T1, human LILRB1 expressed on cells (human, UniProt Q8NHL6 24-650) (assay: flow cytometry, CHO-LILRB1 cells).
T1 construct: In 293T cells it was expressed from pCMV3-LILRB1-GFP; also called CHO-LILRB1; Jurkat-LILRB1
T1 sequence (Q8NHL6 other isoform, or with tags, fused parts or gaps limits assumed): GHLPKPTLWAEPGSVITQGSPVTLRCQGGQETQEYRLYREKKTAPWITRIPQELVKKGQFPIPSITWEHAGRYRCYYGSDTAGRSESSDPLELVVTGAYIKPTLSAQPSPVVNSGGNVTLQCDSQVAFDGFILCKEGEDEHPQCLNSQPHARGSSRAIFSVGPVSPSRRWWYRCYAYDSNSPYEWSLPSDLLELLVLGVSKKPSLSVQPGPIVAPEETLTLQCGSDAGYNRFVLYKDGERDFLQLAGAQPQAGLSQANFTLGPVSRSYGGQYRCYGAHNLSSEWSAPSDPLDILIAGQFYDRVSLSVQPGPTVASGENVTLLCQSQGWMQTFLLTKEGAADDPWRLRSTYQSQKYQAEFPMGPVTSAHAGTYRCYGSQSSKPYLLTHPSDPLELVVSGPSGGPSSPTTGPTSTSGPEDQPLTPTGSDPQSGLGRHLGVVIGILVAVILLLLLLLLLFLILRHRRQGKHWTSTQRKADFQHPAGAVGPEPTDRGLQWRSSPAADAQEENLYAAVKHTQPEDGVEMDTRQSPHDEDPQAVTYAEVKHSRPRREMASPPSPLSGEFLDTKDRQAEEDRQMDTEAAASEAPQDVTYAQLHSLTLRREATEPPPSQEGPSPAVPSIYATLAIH
B1 showed an EC50 of 1.72 µg/mL.
With B2 the EC50 was 2.66 µg/mL.
B3 was tested, and the EC50 was 2.01 µg/mL.
Work on B4 yielded an EC50 of 1.13 µg/mL.
With B5 the EC50 was 0.768 µg/mL.

Molecular target: T1, human LILRB1 expressed on cells
Assay: flow cytometry, CHO-LILRB1 cells
Remark: another data set of the same source
With B6 the EC50 was 2.35 µg/mL and the “gMFI (max)” value was 50600.
With B1 the EC50 was 1.02 µg/mL and the “gMFI (max)” value was 35700.
With B7 the EC50 was 1.83 µg/mL and the “gMFI (max)” value was 40300.
B3 was tested, and the EC50 was 1.99 µg/mL and the “gMFI (max)” value was 49300.
For B4, the EC50 was 1.46 µg/mL and the “gMFI (max)” value was 40000.
For B5, the EC50 was 1.08 µg/mL and the “gMFI (max)” value was 46500.
With B8 the EC50 was 0.264 µg/mL and the “gMFI (max)” value was 29900.

Each binder was assayed against T2, human LILRB2 expressed on cells (human, UniProt Q8N423 22-597) (assay: flow cytometry, CHO-LILRB2 cells).
T2 construct: In 293T cells it was expressed from pCMV3-LILRB2-GFP; also called CHO-LILRB2; Jurkat-LILRB2
T2 sequence (Q8N423 other isoform, or with tags, fused parts or gaps limits assumed): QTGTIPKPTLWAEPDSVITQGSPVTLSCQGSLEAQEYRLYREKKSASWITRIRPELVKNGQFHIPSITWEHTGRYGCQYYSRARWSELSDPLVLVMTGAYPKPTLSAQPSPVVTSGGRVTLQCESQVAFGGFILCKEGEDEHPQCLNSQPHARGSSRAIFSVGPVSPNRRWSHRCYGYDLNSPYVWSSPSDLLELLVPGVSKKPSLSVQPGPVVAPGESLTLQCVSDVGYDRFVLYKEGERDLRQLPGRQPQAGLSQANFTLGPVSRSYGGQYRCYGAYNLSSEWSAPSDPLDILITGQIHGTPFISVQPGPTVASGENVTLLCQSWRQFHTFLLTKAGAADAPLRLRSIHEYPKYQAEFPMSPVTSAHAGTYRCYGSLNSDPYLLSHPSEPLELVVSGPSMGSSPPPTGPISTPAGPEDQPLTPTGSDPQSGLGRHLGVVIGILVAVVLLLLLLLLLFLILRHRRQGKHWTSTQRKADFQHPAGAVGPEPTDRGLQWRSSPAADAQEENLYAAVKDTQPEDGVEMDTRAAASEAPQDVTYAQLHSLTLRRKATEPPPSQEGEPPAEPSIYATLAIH
B6 was tested, and the EC50 was 0.894 µg/mL and the “gMFI (max)” value was 25600.
In the case of B1, the EC50 is reported as 0.435 µg/mL and the “gMFI (max)” value is reported as 23900.
For B7, the EC50 was 0.836 µg/mL and the “gMFI (max)” value was 26600.
With B3 the EC50 was 0.911 µg/mL and the “gMFI (max)” value was 26300.
In the case of B4, the EC50 is reported as 1.2 µg/mL and the “gMFI (max)” value is reported as 21600.
For B5, the EC50 was 0.565 µg/mL and the “gMFI (max)” value was 24800.
For B8, the EC50 was 0.058 µg/mL and the “gMFI (max)” value was 18500.

Each binder was assayed against T1, human LILRB1 expressed on cells (assay: flow cytometry, Jurkat-LILRB1 cells).
B9 gave an EC50 of 0.201 µg/mL.
In the case of B10, the EC50 is reported as 1.6 µg/mL.
B11 gave an EC50 of 1.86 µg/mL.

The binders below were run against T2, human LILRB2 expressed on cells (assay: flow cytometry, Jurkat-LILRB2 cells).
B9 was tested, and the EC50 was 0.131 µg/mL.
B10 showed an EC50 of 0.111 µg/mL.
With B11 the EC50 was 0.145 µg/mL.

These binders were tested against T3, LILRB1-ECD-HIS (SinoBiological Cat #: 16014-H02H) (human, UniProt Q8NHL6 24-461) (assay: SPR (Carterra LSA), antibody captured, antigen injected;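 further: kd obtained from kinetic analysis of antibody binding to the antigen, with association and dissociation phases fitted in the instrument software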).
T3 construct: Bought protein; also called monomeric antigen LILRB1-ECD-HIS; not shown: His tag
T3 sequence (Q8NHL6 other isoform, or with tags, fused parts or gaps H02H H02H): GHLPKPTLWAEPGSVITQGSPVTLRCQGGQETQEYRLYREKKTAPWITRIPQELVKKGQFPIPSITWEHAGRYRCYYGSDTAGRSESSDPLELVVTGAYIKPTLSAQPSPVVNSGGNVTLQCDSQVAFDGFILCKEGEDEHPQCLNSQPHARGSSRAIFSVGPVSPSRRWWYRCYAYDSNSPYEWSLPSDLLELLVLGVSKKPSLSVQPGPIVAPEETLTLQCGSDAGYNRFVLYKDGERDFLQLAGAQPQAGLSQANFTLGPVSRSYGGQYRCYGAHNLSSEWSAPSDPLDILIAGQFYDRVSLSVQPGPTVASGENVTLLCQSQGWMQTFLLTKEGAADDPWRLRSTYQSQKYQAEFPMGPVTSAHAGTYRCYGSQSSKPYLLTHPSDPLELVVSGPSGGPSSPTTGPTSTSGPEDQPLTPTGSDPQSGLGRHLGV
Binder B6 has a Kd of 0.667 nM.
B12 showed a Kd of 23.2 nM.
In the case of B1, the Kd is reported as 0.556 nM.
B13 gave a Kd of 20 nM.
B14 gave a Kd of 1.36 nM.
Work on B2 yielded a Kd of 0.714 nM.
In the case of B15, the Kd is reported as 7.65 nM.
Work on B16 yielded a Kd of 28.7 nM.
B17 was tested, and the Kd was 1.18 nM.
In the case of B7, the Kd is reported as 0.882 nM.
B18 showed a Kd of 3.44 nM.
Binder B3 has a Kd of 0.588 nM.
Work on B19 yielded a Kd of 34.4 nM.
With B20 the Kd was 1.19 nM.
For B21, the Kd was 10.4 nM.
B4 gave a Kd of 0.417 nM.
B22 gave a Kd of 1.6 nM.
B5 was tested, and the Kd was 0.64 nM.
B8 gave a Kd of 57.1 nM.

Each binder was assayed against T4, LILRB2-ECD-HIS (SinoBiological Cat #: 14132-H02H) (human, UniProt Q8N423 22-460) in the same assay as above.
T4 construct: Bought protein; also called monomeric antigen LILRB2-ECD-HIS; not shown: His tag
T4 sequence (Q8N423 other isoform, or with tags, fused parts or gaps H02H H02H): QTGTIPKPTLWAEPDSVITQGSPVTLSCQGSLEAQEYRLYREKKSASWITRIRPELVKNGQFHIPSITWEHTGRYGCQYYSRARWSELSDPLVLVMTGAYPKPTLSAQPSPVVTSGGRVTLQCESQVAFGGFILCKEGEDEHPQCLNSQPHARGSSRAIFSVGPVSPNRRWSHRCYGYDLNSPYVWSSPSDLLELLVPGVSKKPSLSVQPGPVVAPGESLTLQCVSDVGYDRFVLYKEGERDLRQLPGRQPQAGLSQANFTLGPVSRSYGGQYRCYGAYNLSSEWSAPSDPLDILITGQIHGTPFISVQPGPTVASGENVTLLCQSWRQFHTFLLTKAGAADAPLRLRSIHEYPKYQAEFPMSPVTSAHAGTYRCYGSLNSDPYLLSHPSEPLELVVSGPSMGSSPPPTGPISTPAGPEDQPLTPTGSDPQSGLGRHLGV
In the case of B6, the Kd is reported as 0.1 nM.
For B12, the Kd was 0.624 nM.
Binder B1 has a Kd of 0.0481 nM.
B13 was tested, and the Kd was 1.26 nM.
Work on B14 yielded a Kd of 0.0526 nM.
B2 gave a Kd of 0.0385 nM.
In the case of B15, the Kd is reported as 0.636 nM.
Work on B16 yielded a Kd of 1.59 nM.
Work on B17 yielded a Kd of 0.0476 nM.
Binder B7 has a Kd of 0.0385 nM.
B18 gave a Kd of 0.145 nM.
B3 gave a Kd of 0.0323 nM.
For B19, the Kd was 3.05 nM.
B20 was tested, and the Kd was 0.2 nM.
In the case of B21, the Kd is reported as 0.617 nM.
B4 was tested, and the Kd was 0.0213 nM.
Binder B22 has a Kd of 0.2 nM.
B5 showed a Kd of 0.191 nM.
B8 was tested, and the Kd was 0.542 nM.

Each binder was assayed against T1, human LILRB1 expressed on cells (assay: flow cytometry, CHO-LILRB1 cells; blocked ligand: APC HLA-G trimer tetramer).
In the case of B1, the IC50 is reported as 0.569 µg/mL.
B2 gave an IC50 of 1.18 µg/mL.
Binder B3 has an IC50 of 0.758 µg/mL.
Binder B4 has an IC50 of 0.367 µg/mL.
Binder B5 has an IC50 of 0.26 µg/mL.

These binders were tested against T1, human LILRB1 expressed on cells (assay: flow cytometry, Jurkat-LILRB1 cells; blocked ligand: APC HLA-G trimer tetramer).
With B9 the IC50 was 0.138 µg/mL.
With B10 the IC50 was 0.501 µg/mL.
B11 showed an IC50 of 0.427 µg/mL.

The binders below were run against T2, human LILRB2 expressed on cells (assay: flow cytometry, Jurkat-LILRB2 cells; blocked ligand: APC HLA-G monomer tetramer).
With B9 the IC50 was 0.025 µg/mL.
B10 gave an IC50 of 0.022 µg/mL.
With B11 the IC50 was 0.03 µg/mL.
